Assay: yeast display, Sf9 membrane polyspecificity reagent, FACS + sequencing; frameworks hold sequencing errors
Outline: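 Polyreactivity labels are assigned by the sorting gate from which each nanobody was recovered. The gates were low and high (top ~1%), set on anti-HA fluorescence for expression and streptavidin fluorescence for reagent binding. Before sorting, galactose-induced (36–48 hours) yeast display cells were stained for 1 hour at 4 °C with 10% biotinylated, detergent-solubilized Sf9 membrane reagent.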

Sequence | polyreactivity (PSR sort gate)
QVQLVESGGGLVQAGGSLRLSCAASGSIFYTYAMGWYRQAPGKERELVAAISGTGTSTYYADSVKGRFTISRDHAKNTVYLQMNSLKPEDTAVYFCATHGGAAWGRYYWYYGYWGQGTQVTVSS | low polyreactivity
QDQLVESGGGLVQAGGSLRLSCRASGFTFTHYAMGWSRKAPGKERELVAAIDRSGDSTYYADSVKGRFTISRDNAKNTVYLQMNSLKPEDTAVYYSAADLFDSLIWVYWTYVARFDYWGQGTQVTVSS | low polyreactivity
QVQLVESWGGLVQAGGSLRLSCAASGRIFANYGMGWYRQAPRKERELVAAIDRSGGTTFYADSVKGRFTISRDNAKNTVYLQMNSLKPEDTAVYYCAAALSYWYYAYYYWGQGTQVTVSS | low polyreactivity
QVQLVESGGVLVQAGGSLRLSCAASGRIFRSYALGWYRQAPGKETEFVAAISSGGSTNYADSVKGRFTISRDNAKNTVYLQMNSLKREDTAVYYCAADLWAYTWYWHSDYWGQGTQVTVSS | low polyreactivity
QVQLVESGGGLVQAGGSLRLSCAASGRTFSYYAMGCYRQAPGKERELVASISSGGSTKYADSVKGRFTISRDNAKNTVYLQMNSLKPEDTAVYYCAVTYWYGRVLYGYWGQGTQVTVSS | high polyreactivity
QVQLVESGGGLVQAGGSLRLSSAGSGSPFRSNAMGWYRQAPGKERELVAAISQRGGSTYYADSVKGRFTISRDNAKNPVYLQMNSLKAVDTAVYYCAKVSKRVGFPTAMNYWGQGTQVTVSS | high polyreactivity
QVQLVESVGGLVQAGGSLRLSCAASGRTFSGNAMGWYIQAPGKERELVAGISTSGGSTYYADSVKGRFTISRDNSKNTVYLQMNSLKPEDTAVYYCNARSRYRYYRSFGGDYWGQGTQVTVSS | high polyreactivity
QVQIVESGGGLVQAGGSLRLSCAASGSTFWYNAMGWYRQAPGKERELVAAITWTGDGTYYADSVKGRFTISRDNAKNTVYLQMNSLKPEDTAVYYCAAAYFQWSTSIVGLDAGYDYWGQGTQVNVSS | low polyreactivity
QVQLEESGGGLVQAGGSLRLSCAASGRTFSPNTMGWYRQAPGKEREFVAAITASGDSTYYADSVKGRFTISRDNAKYSVYLQMNRLKPEDTAVYYCATDSNWYWGFNYWGQGTQVTVSS | low polyreactivity
QVQLVESGGGLVQAGGSLRLSCGASGSTFAYYTMGWYRQAPAKERELVAAITSGGRTSYAESVKGRFTISRDNAKNTVYLQMNSLKPEDTAVYYCAKGRKPGYYYWGQGTQVTVSS | high polyreactivity
QVQLVESGGGLVQAGGSLRLSCAASGRIFYNYGLGWYRQAPGKERELVARITTGGRTNYADSVKGRFTMSRDNAKNTVYLQMNSLKPEDTAVYYCNADGYHSRWYYYNYDYWGQGTQVTVSS | low polyreactivity
QVQLVESGGALVQAGGSLRISCAASGRIFDGYTMGWSRQAPGKERELVAAITSGGGSTYYADSVKGRFTISRDNAKNTVYLQMNSLKPEDTAVYYCAAYRRNTYWGQGTQVTVSS | high polyreactivity
QVQLQESSGGLVQAGGSLRMSCAASGTNFHFHIMGWYRQAPGKEREFVAAISYGTSTYYADSVKGRFTISRDNAKNTVYLQMNSQKPEDTAVYYCAVYDYLEVYCWYWGQGTQVTVSS | low polyreactivity
QVQLVESGGGLVQAGGSLLLSCDASGNTFIENDMGWYIQAHGKERELVDPIDTGGYTYYADSVKGRFTISRDNAKNTVYLQMNSLKPDDTAVYYCTAVGLYLYRYKFGYLGKIGPGYDYWGQGTQVTVSS | low polyreactivity
QVQLVESGGGLVQAGGSLRLSCAASGSTFTAYAMGWYRQAPGKERELVAAISKRSGGTYYADSVKGRFTISRDNAKNTVYLQMNSLKPEDTAVYYCGQGTQVTVSS | low polyreactivity
QVRLVETGGGLVQAGGSLRLSCAASGSTFPHYTMGWYIQAHGKERELVAVISRSGRTYYADSVKGRFTISRDNAKNTFYLQMNSLKPEDTAVYYCDVLVGRLVWSYNHWGQVTQVTVSS | high polyreactivity
QVQLVESGGGLVQAGGSLRLSCAASGSISWHYAMGWYRQAPGKERELVASISTDGGTTYYADSVKGRFTISRDNAKNTVYLQMNSLKPEDTAVYYCAAEWYWVYYVPYEYWGQGTQVTVSS | low polyreactivity
QVQLVESGGGLVHAGGSLRLSCAASGIILDYNAMGWYRQAPGKERELVAAITWSGSSTFYADTVKGRYTISHDNSKNTVYLQMNSLKPEDTAVYYCNADYFWGTYANFDYWGQCTQVTVSS | low polyreactivity
QVQLVESGGGLVQAGGSLRLSCAASGSTFSKYAMGWYRQAPVKERELVAGIRGRGGSAYYADSVKGRFTISRDNAKNTVYLQMNSLKPEDTAVYYCAKEARLWGQGTQVTVSS | low polyreactivity
QVQLVESGGGLVQAGGSLRLSCAASGRIFTSYTMGWYRQAPGKERELVAAIDWSGGTTYYADSVKGRFTISRDNAKNTVYLQMNSLKPEDTAVYYCAALYVKVGYYTYEYWGQGTQVTVSS | low polyreactivity
QVQLVESGGGLVQAGGSLRLSWAAYGRIFLTNAMGWYRQAPGKERELVAAITSGGSTYYADSVKGRFTISRDNAKNTVYLQMNSLKPEDTAVYYCKADTDRYWPYEYDYWGQGTQVTVSS | low polyreactivity

From the nanobody polyreactivity screen of Harvey et al. (2022)
